Experimental data taken from patent US20240400677A1 (ELECTRA THERAPEUTICS, published 2024).

T1: cynomolgus monkey SIRPγ-His monomer protein (cynomolgus monkey, UniProt Q9P1W8 29-359 (human entry), limits assumed)
T1 construct: also called Cyno SIRPγ; Cyno SIRPγ-His
T1 chain: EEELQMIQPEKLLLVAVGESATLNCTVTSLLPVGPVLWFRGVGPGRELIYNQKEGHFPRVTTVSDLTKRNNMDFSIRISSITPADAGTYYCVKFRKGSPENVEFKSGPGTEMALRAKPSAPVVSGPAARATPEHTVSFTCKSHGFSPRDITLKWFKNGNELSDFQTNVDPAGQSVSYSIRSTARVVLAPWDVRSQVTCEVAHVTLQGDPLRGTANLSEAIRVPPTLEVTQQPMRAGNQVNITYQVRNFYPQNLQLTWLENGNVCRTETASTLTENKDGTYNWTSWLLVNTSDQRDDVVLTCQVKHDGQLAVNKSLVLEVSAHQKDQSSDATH

T2: cynomolgus monkey SIRPα on CHO cells (cynomolgus monkey, UniProt A0A2K5VYQ9 31-507)
T2 construct: whole, on cells; also called Cyno SIRPα CHO
T2 sequence: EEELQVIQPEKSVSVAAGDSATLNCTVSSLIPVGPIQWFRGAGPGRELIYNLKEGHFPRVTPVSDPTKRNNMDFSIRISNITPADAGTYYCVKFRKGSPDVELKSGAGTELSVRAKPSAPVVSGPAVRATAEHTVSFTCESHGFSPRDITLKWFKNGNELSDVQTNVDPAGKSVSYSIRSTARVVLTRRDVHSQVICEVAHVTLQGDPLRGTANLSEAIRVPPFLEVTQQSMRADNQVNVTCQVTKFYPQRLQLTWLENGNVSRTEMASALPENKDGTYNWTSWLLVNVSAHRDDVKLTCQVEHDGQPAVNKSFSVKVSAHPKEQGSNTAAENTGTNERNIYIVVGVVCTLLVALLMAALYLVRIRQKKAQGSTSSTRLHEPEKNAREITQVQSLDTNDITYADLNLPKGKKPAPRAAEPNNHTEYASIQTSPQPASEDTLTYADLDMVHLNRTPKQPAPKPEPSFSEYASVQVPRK

T3: cynomolgus monkey SIRPγ on CHO cells (cynomolgus monkey, UniProt Q9P1W8 29-386 (human entry))
T3 construct: also called Cyno SIRPγ CHO
T3 chain: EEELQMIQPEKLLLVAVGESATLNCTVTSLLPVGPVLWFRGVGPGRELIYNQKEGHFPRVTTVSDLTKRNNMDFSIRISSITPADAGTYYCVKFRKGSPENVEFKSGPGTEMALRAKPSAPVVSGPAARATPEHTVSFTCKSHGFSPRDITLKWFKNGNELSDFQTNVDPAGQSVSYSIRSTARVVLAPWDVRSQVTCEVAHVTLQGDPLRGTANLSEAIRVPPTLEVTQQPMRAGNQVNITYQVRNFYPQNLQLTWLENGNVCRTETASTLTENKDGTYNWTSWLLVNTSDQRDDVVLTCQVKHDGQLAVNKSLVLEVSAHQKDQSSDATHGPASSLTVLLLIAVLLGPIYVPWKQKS


Key:
[1] = biological target: T1, cynomolgus monkey SIRPγ-His monomer …; assay: BLI Octet, captured scFv PPE, cyno SIRP
Experimental: Unique binders were further tested for binding to human SIRPαV1, human SIRPαV2, and human SIRPβ1. Briefly, biotinylated anti-V5 was immobilized onto streptavidin biosensors. Each V5-tagged SIRPγ scFv antibody as crude PPE was captured by the anti-V5 antibody. SIRP-His monomer protein at 500 nM was exposed to the biosensor for binding to SIRP scFv. The biosensors were then exposed to wash buffer to measure off-rate kinetics. The resulting association and dissociation kinetics (kdis) was analyzed. […] Similarly, cross-reactivity to cynomolgus monkey SIRPγ, cynomolgus monkey SIRPα, and cynomolgus monkey SIRPβ1 were tested.

[2] = biological target: T4, human SIRPβ1 on CHO cells (co-transfected with DAP12) (human, UniProt O00241 30-398); assay: flow cytometry
T4 construct: whole, on cells; co-transfected with DAP12; also called Human SIRPβ1 CHO

[3] = biological target: T2, cynomolgus monkey SIRPα on CHO cells; assay: flow cytometry
[4] = biological target: T5, human SIRPγ-His monomer protein (human, UniProt Q9P1W8 29-360); assay: BLI Octet, V5-scFv PPE captured, SIRP-His 500 nM
T5 construct: also called hSIRPγ

[5] = biological target: T3, cynomolgus monkey SIRPγ on CHO cells; assay: flow cytometry, myc-scFv PPE
Method in brief: (§1)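 Flow cytometry on stable CHO transfectants; antibody titration; fluorescent anti-human IgG detection; MFI per concentration. myc-tagged scFv: crude PPE on SIRP-expressing CHO and parental CHO-K1; fold change <2.0 = non-binder.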

[6] = biological target: T6, human SIRPγ on stably transfected CHO cells (human, UniProt Q9P1W8 29-387); assay: flow cytometry, myc-scFv PPE
T6 construct: also called Human SIRPγ CHO
Method in brief: as §1

T4 sequence (O00241 30-398): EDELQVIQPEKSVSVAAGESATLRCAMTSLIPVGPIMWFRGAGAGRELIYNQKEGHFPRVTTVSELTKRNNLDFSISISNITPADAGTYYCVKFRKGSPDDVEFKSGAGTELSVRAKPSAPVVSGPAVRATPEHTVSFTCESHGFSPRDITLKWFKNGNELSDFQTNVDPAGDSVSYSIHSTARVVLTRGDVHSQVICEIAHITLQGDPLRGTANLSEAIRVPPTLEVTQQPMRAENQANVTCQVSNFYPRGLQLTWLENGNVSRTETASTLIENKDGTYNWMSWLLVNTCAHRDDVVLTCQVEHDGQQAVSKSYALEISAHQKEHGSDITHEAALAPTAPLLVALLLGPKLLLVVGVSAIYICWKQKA
T6 sequence (Q9P1W8 29-387 limits assumed): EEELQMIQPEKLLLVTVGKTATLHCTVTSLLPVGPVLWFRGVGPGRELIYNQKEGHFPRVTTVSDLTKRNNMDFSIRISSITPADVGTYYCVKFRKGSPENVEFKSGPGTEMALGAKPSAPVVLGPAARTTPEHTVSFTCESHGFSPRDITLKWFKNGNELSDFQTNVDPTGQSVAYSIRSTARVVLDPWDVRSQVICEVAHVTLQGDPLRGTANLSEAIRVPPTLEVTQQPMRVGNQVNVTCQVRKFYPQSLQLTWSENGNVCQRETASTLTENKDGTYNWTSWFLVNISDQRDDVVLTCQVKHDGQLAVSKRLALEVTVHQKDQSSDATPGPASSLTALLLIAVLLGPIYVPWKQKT
T5 sequence (Q9P1W8 29-360 limits assumed): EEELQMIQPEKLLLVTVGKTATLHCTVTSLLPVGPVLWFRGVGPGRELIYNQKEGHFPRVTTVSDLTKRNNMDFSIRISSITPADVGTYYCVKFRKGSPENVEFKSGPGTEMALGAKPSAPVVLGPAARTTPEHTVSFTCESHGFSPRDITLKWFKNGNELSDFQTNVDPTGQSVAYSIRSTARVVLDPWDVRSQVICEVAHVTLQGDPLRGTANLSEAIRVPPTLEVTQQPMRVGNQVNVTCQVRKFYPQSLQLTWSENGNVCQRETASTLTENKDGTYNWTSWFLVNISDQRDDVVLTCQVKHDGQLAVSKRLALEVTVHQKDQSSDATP

Binder	binding result [1]	binding result [2]	binding result [3]	kdis [4]	MFI fold change over parental CHO [5]	MFI fold change over parental CHO [6]
Antibody 40 (scFv, V domains shown, scFv in crude PPE, V5/myc-tagged) VH: QVQLVQSGAEVKKPGSSVKVSCKASGGTFSSYAISWVRQAPGQGLEWVGRIHPRDGSTDYAQKFQGRVTITADESTSTAYMELSSLRSEDTAVYYCARVSLRFLEDYGMDVWGQGTTVTVSS VL: not shown	binds	no binding (tested: fold change <2.0)	no binding (tested: fold change <2.0)	0.001 to 0.01 s⁻¹	15.3 fold	15.4 fold
Antibody 26 (scFv, V domains shown, scFv in crude PPE, V5/myc-tagged) VH: QVQLVQSGAEVKKPGASVKVSCKASGYTFTSYYMHWVRQAPGQGLEWMGRINPNSGGTKYAQKFQGRVTMTRDTSTSTVYMELSSLRSEDTAVYYCARLGSAYFDLWGRGTLVTVSS VL: DIQMTQSPSSLSASVGDRVTITCRASQSVDTWLAWYQQKPGKAPKLLIYEASTLESGVPSRFSGSGSGTDFTLTISSLQPEDFATYYCQQANSFPITFGQGTRLEIK	binds		no binding (tested: fold change <2.0)	0.001 to 0.01 s⁻¹	40 fold	28.4 fold
Antibody 43 (scFv, V domains shown, scFv in crude PPE, V5/myc-tagged) VH: QVQLVQSGAEVKKPGASVKVSCKASGGTFTSYDINWVRQAPGQGLEWMGWISAYNGHTNYAQNLQGRVTMTRDTSTSTVYMELSSLRSEDTAVYYCAREDSSWYFDLWGRGTLVTVSS VL: DIQMTQSPSSLSASVGDRVTITCRASQSISSWLAWYQQKPGKAPKLLIYDASNLETGVPSRFSGSGSGTDFTLTISSLQPEDFATYYCQQSFSTPPTFGQGTKVEIK	binds	no binding (tested: fold change <2.0)	no binding (tested: fold change <2.0)		22.7 fold	41.2 fold

Second part, the binder after the results:

binding result [1]	binding result [2]	binding result [3]	kdis [4]	MFI fold change over parental CHO [5]	MFI fold change over parental CHO [6]	Binder
binds		no binding (tested: fold change <2.0)		30.1 fold	28.3 fold	Antibody 17 (scFv, V domains shown, scFv in crude PPE, V5/myc-tagged) VH: QVQLVQSGAEVKKPGASVKVSCKASGYTFTRNYVHWVRQAPGQGLEWMGRINPNSGGTNTAQKFQGRVTMTRDTSTSTVYMELSSLRSEDTAVYYCARLGDVAVAASFDYWGQGTLVTVSS VL: DIQMTQSPSSLSASVGDRVTITCRASQSISSYLNWYQQKPGKAPKLLIYDASSLESGVPSRFSGSGSGTDFTLTISSLQPEDFATYYCQQANSFPLTFGPGTKVDIK
binds	no binding (tested: fold change <2.0)		0.001 to 0.01 s⁻¹	15.5 fold	31.1 fold	Antibody 37 (scFv, V domains shown, scFv in crude PPE, V5/myc-tagged) VH: QVQLVQSGAEVKKPGASVKVSCKASGYTLNNYDINWVRQAPGQGLEWMGWISGYNGNTNYAQKLQGRVTMTRDTSTSTVYMELSSLRSEDTAVYYCARVGSSWEENDQWGQGTLVTVSS VL: DIQMTQSPSSLSASVGDRVTITCRASQSISRWLAWYQQKPGKAPKLLIYAASSLESGVPSRFSGSGSGTDFTLTISSLQPEDFATYYCQQTHSFPLTFGGGTKVEIK
binds	no binding (tested: fold change <2.0)	no binding (tested: fold change <2.0)	0.001 to 0.01 s⁻¹	5.22 fold	7.06 fold	Antibody 13 (scFv, V domains shown, scFv in crude PPE, V5/myc-tagged) VH: EVQLLESGGGLVQPGGSLRLSCAASGFTFSNSDMNWVRQAPGKGLEWVSYISSSGNTIYYADSVKGRFTISRDNSKNTLYLQMNSLRAEDTAVYYCARSNWNYPLDYYYMDVWGKGTTVTVSS VL: DIVMTQSPLSLPVTPGEPASISCRSSQSLLHSNGYNYLDWYLQKPGQSPQLLIYAASSLQSGVPDRFSGSGSGTDFTLKISRVEAEDVGVYYCMQGTHWPPTFGQGTKVEIK
